According to the nanobody polyreactivity screen of Harvey et al. (2022):

test: yeast display, Sf9 membrane polyspecificity reagent, FACS + sequencing; frameworks hold sequencing errors
Procedure, shortened: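 Polyreactivity labels are assigned by the sorting gate from which each nanobody was recovered. The gates were low and high (top ~1%), set on anti-HA fluorescence for expression and streptavidin fluorescence for reagent binding. Before sorting, galactose-induced (36–48 hours) yeast display cells were stained for 1 hour at 4 °C with 10% biotinylated, detergent-solubilized Sf9 membrane reagent.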

Sequence | polyreactivity (PSR sort gate)
QVQLVESGGCLVQAGGSLRLSCAASGRTFPLYAMGWYRQAPGKERELVASITNGGNTNYADSVKGRFTISRDNEKNTVYLQMNSLKPEDTAVYYCAAQTFGYGFGGGDYWGQGTQVTVSS | low polyreactivity
QVQLVESGGGLVQAGGSLRLSCAASGIIFTFYTMGWYRQAPGKERELVAAITWSGGSTNYADSVKGRFTISRDNAKNTVYLQMNSLKPEDTAVYYCAAQGYPQSPPWEDYWGQGTQVTVSS | low polyreactivity
QVQLVESGGGLVQAGGSLRLSCAASGLILGYYAMGWYRQAPGKERELVATIRRGASTFYADSVKGRFTISRDNAKNTVYLQLNSLKPEDTAVYYCAADTERSLAGGLYYWGQGTQVNVSS | low polyreactivity
QVQLVESGGGLVQAGGSLRLSCAAYGNTFYRNAMGWYRQAPGKERELVAAITFSTGRTYYADSVKGRFTISRDNAKNTVYLQLNSLKPEDTAVYYCAAFYRGGDYWGQGTQVTVSS | high polyreactivity
QVQLVESGGGLVQAGGSLRLSCAASGSTFRTNTMGWYRQAPGKERELVAAITGTGGSTYYADSVKGRFTISRDNAKNTVYLQMNSLKPEDTAVYYCAKRYYRWRRDYSWGQGTQVTVSS | high polyreactivity
QVLLQESGGGLVQAGGSLRLGCAASGTISPAYYMGRSHQAPGKEREFVAAITYGTNTYYADSVKGRFTISRDNAKNTVYLQMNSLKPEDTAVYYCSATAGYNGAHDYWGQGTQVTVSS | low polyreactivity
QVQLVESGGGLVQAGGSLRLSCAASGRIFGAYAMGWSRQAPGKERELVAAISSSGSRTYYADSVKGRFTISRDNAKNTVYLQMNSLKPEDTAVYYCAATRVSALYDYWGQGTQVTVSS | high polyreactivity
QVQLVESGGGLVQAGGSLRLSCAASGSTFPVYAMGWYRQAPGKERELVAAISLIGGSTYYADSVKGRFTISRDNAKNTVYLQMNSLNPEDTAVYYCNNAVISSPPAIDVLEMDYWGQGTQVTVSS | low polyreactivity
QVQLVESGGGLVQAGGSLRLSCAASGRTFAWNAMGWYRQAPGKERELVAAISSRGTSTYYADSVKGRFTISRDNAKNTVYLQMNSLKPEDTAVYYCAKYTNPASGEYGYWGQGTQVTVSS | high polyreactivity
QVQLVESGGGLVQAGGSLRLSCAASGSTFYYYAMGWYRQAPGKERELVAAISKSGGSTYYADSVKGRFTISRDNAKNTVYLQMNSLKPEDTAVYYCAARGRYISDYWGQGTQVTVSS | high polyreactivity
QVQLVESGGGLVQAGGSLRLSCAASGSTFQYYAMGWYRQEPGKEREFVASISGSGGSTNYADSVKGRFTISRDNAKNTVYLQMNSLKPEDTAVYYCAKEYVTEFQGYYYWGQGTQVTVSS | low polyreactivity
QVQLVESGGGLVQPGGSLRLSCAASGRIFGRYAMGWYRQAPGKERELVAAISRGGTTNYADSVKGRFTISRDNAKNTVYLQMNSLKPEDTAVYYCAKSGPKRGQYDYWGQGTLVTVSS | high polyreactivity
QVQLVESGGGLVQAGGSLRLSCAASGITSYPYAMGWYRQAPGKERELVAAISKRGGGTYYADSVKGRFTISRDNAKNTVYLQMNSLKPEDTAVYYCAKSWGPTTYKIVPAYGYWGQGTQVTVSS | high polyreactivity
QVQLVESGGGLDQAGGSLRLTWAASGSIIGRNFMGLYRQAPGKEREFLAAIRSSGATTYYADSVKGRFTISRDNAKYTVFLQMTSLKPEDTAVYYCNARPPYYTVQTGGYDYWGQGTQVTVSS | low polyreactivity
QVQLVESGGGLVQAGGSLRLSCASSGSIFAYNTMGRYRQAPGKERELVAAITGRAGSTYYADSVKGRFTISRDNAKNTFYLQMNSLKPEDTAVYYCAAEYRFAFPLWLDYWGQGTQVTVSS | high polyreactivity
QVQLVESGGGLVQAGGSLRLSCAASGSIFDGYAMGWYRQAPGKEREFVAAITKRTGRTYYADSVKGRFTISRDNAKNTVYLQMNSLKPEDTAVYSCAARKKSLTTLRYGYWGQGTQVTVSS | high polyreactivity
QVQLVESGGGLVQAGGSLRLSCAASGFTFPWYAMVWYRQSPGKERELVASISYRGDSTYYADSVKGRFTISRDNAKNTVNLQMNILKPEDTAVYYCNKLLASYYLPGFDYWGQGTQVTVSS | low polyreactivity
QVQLVESGGGLVQAGGTLRLSCAASGGTFKVNAMGWYRQAPGKERELVASITGRGGSTYYADSVKGRFTISRDNAKNTVYLQMNSLKPEDTAVYYCAAAWRLGHLRFNSWGQGTQVTVSS | high polyreactivity
QVQVVESGGGLVQAGGSLRLSCAASGSNFQRYTMGLYRQAPGKDRELVAAITGRGGSTYYADSVKGRFTISRDNAKNTVYLEMNSLKPEDTAVYYCAAGAFRRYKSDYYYWGQGTQVTVSS | low polyreactivity
QVQLVESGGGLVQAGGSLRLSCAASGSIFRRNAMGWYRQAPGKARELVATITSSGGSTYYADSVKGRFTISRDNAKNTVYLQMNSLKPEDTAVYDCATDGQSPYYIYYWGQGTQVTVSS | low polyreactivity
QVQLVESGGGLVQAGGSLRLSCAASGITFTEYAMGWYRQAPGKERELVATISYGGGITYYADSVKGRFTISRDNAKNTVYLQMNSLKPEDTAVYYCAADGLSQVQRGMDYWGQGTQVNVSS | low polyreactivity
QVQLVESGGGLVQAGGSLRLSSAASGFTFWYYAMGWYRQAPGKERELVAAITWNGGSTYYADSVKGRFTISRDNAKNTVYLQMNSLKPEDTAVYYCNAYSPFYPVPSEYDYWGQGTQVTVSS | high polyreactivity

Sequence | polyreactivity (PSR sort gate)
QVQLVESGGGLVQAGGSLRLSCAASGRTFSYYAMGWYRQAPGKERELVATIRFSAGGTYYADSVKGRFTISRDNAKNTVYLQMNSLKPEDTAVYYCNADSIDPFLYDYWGQGTQVTVSS | low polyreactivity
QVQLVESGGGLVQAGGTLRLSCAASGRTFGWYAMGWYRQAPGKERELVASITQRGGRTYYADSVKGRFTISRDNAKNTVYLQMNSLKPEDTAVYYCAAKTSPGMYYWGQGTQVTVSS | high polyreactivity
QVQLVESGGGLVQAGGSLRLSCAASGIIFITYAMGWYRQAPGKERELVAAITSDGNTNYADSVKGRFTISRDNAKNTVYLQMNSLKPEDTAVYYCNAETQYGVLSWHSTRHDYWGQGTQVTVSS | low polyreactivity
QVQLVESGGGLVQAGGSLRLSCAASGFIFVKNAMGWYRQAPGKERELVAVISTRGGRTYYADSVKGRFTISRDNAKNTVYLQMNSLKPEDTAVYYCAAGDQYKTRRNGYGYWGQGTQVTVSS | high polyreactivity
QVQLVESGGGLVQAGGSLRLSCAASGITFQWYTMGWYRQAPGKERELVATISSGGSTNYADSVKGRFTISRDNAKNTVYLQMNSLKPEDTAVYYCAKQPTVYHHYGLGYWGQGTQVTVSS | low polyreactivity
QVQLVESGGGLVQAGGSLSLSCAASGSIFYNYAMGWYRQAPGKEREFVAAISWSGDTTYYADSVKGRFTISRDNAKNTVYLQMNSLKPEDTAVYYCNADIYASEYYYWGQGTQVTVSS | low polyreactivity
QVQLVESGGGLVQAGGSLRLSCAASGIFAWNAMGWYRQAPGKERELVAAISWSGGSTYADSVKGRFTISRDNAKNTVYLQMNSLKPEDTAVYYCAKVSSLTSKSDYWGQGTQVTVSS | low polyreactivity
QVQLVESGGGLVQAGGSLRLSCAASGRIFSRNARGWYRQATGKERELVAAITARSGTTFYADSVKGRFTISRDNAKNTVYLQMNSLKPEDTAVYYCAADGSPSLLDYWGQGTQVTVSS | high polyreactivity
QVQLVESGGGLVQAGGSLRLSCAASGRTIGYNDLGWYRQAPGKERELVAAIDWSGGSTYYADSVKGRFTISRDNAKNTVYLQMNSLKPEDTAVYDCAALVWRDEYDYLGQGTQVTVSS | low polyreactivity
QVQLVESGGGLVQAGGSLRLSCAASGLIFRGYAMGWYRQAPGKERELVAAISGSGVTTYYADSVKGRFTISRDYAKNSVYLQMNCLKPEDTAVYYCAASTRYEGNYWGQGTQVTVSS | high polyreactivity
QVQLVESGAGLVLPGGSLRLSCAASGNTTSTNAMGWYRQAPGKERVAALTWSTGSTYYEDSVKVRFTISRDNAKNTVYLQMNSLKQDETAVYYCAKQTYVSEYGLATAAWGFDYWGQGTQVTVSS | low polyreactivity
QVQLVESGGGLVQAGGSLRLSCAASGRTFTGYVMGWYRQAPGKERELVAVIRYRGGGSYYADSVKGRFTISRDNAKNTVYLQMNSLKPEDTAVYYCARKRVYFGLWMYYWGHGTQVTVSS | high polyreactivity
QVQLEESGGGLVQAGGSLRLSCAASGRIQYNAMGWYRQAPGKEREFVAAISWSGGTTYYADSVKGRFTISRDNAKNTVYLQMNSLKPEDTAVYYCATPYTHWGQGTQVTVSS | high polyreactivity
QVQLVESGGGLVQAGGSLRLSCAASGFTFGVYTMGWYRQAPGKERELVAAITSGGSTHYADSVKGRFTISRDNAKNTVYLQMNSLKPEDTAVYYCAARVRPRPQRIYGYWGQGTQVTVSS | high polyreactivity
QVQLVETGGGLVQAGGTLRLSCADSGFTFHQYTMGWYIPAPGKERELVAAITGTGDTYYADSVKGRFTISRDNAKNTVYLQMNSLKPEDTAVYYCNALYVYRSVANFDYWGQGTQVTVSS | high polyreactivity
QVQLVESGGGLVQAGGSLRLSCAASGSTFDYYAMGWYRQTPGNDRELVAALSWSGGSTYYADSVKGRFTISRDNAKNTVYLQMNSLKPEDTAVYYCATGTYCPRYNYFEGYYWGQGTQVTVSS | high polyreactivity
QVQLVESGGGLVQAGGSLRLSCAASGRIFVKYGMGWYRQAPGKERELVAAISWTGGSTYYADSVKGRFTISRDNAKNTVYLQMNSLKPEDTAVYYCAAESWFKYDYWGQGTQVTVSS | low polyreactivity
QDQLVESGGGLVQAGGSLRLSCAGSGSILDGNAMLWYRQAPGKERELVAGISGDSGSTYYADSVKGRFTISRDNAKNTVYLQMNSLKPEDTAVDYCAVTWGARTDQWPLRVFVGHDYWGQGTQLTVSS | low polyreactivity
QVQLVESGVGLVQAGGSLRLSCAASGRTFWSYAMGLYRQAPGKERELVAAISRGGSRTYYADSVKGRFTISRDNAKNTVYLQMNSLKPEDTAVYYCAADPTASGHFLGQVDYWGQGTQVTVSS | high polyreactivity
QVQLVESGGGLVQAGGSLRLSCAASGSTFRHYAMGLYRQAPGKERELVAAISSTGGSTYYADSVKGRFTISRDNAKNTVYLQMNSLKPEDTAVYYCAASPYGFRRNYYWGQGTQVTVSS | high polyreactivity
QVQLVESGGGLVQAGGSLRLSCAASGRIFYRYAMGWYRQAPGKERELVASISGSGGRTYYADSVKGRFTISRDNAKNTVDLQMNSLKPEDTAVYYCAARIRPSYDWGQGTQVTVSS | high polyreactivity
